Measurements from patent US20220257766A1, “SSTR-TARGETED CONJUGATES AND FORMULATIONS THEREOF” (TVA (ABC), LLC, priority 2019, published 2022).

How the values were obtained:
[1] = Buffer screening for solution stability of Conjugate 57; type: physicochemical; details: acetate buffer at pH range of 4.0 to 4.8, compared with citrate and phosphate buffers
Description: Conjugate 57 is a free flowing powder. Previusly studies have found the stability of Conjugate 57 is dependent on the pH of the solution.

[2] = Pharmacokinetics of Conjugate 57 in patients; type: in vivo, human
Protocol: (§1) In previous clincial studies, Conjugate 57 was administered via IV on an every 3 week cycle ([…]). The dose of Conjugate 57 may be 1.0 mg, 2.0 mg, 4.0 mg, 8 mg, 12 mg, 15 mg or MTD, which has been determined to be 18 mg. […] BSA (meters squared), as used herein, can be calculated as the following: the square root of patient height in centimeters times patient weight in kilograms divided by 3600. As shown in FIG. 1A and FIG. 1B, a trend was evident between dose normalized exposure (AUC0-8 and Cmax) vs BSA for Conjugate 57. […] The majority of toxicity observed was at dose levels greater than 8.8 mg/m^2. Based on these unexpected results, that starting dose of Conjuate 57 for patients was changed from 15 mg to 8.8 mg/m^2 or less than 8.8 mg/m^2. Patients received dose levels such as 8.8 mg/m^2, 8.75 mg/m^2, 8.6 mg/m^2, 8.4 mg/m^2, 8.3 mg/m^2, 7.9 mg/m^2, 7.5 mg/m^2, and 6.7 mg/m2.

[3] = Clinical studies of Conjugate 57 given IV: dose level, benefit and toxicity; type: in vivo, human
Protocol: as §1
The risk of over exposure of high Cmax levels in smaller pateints (<1.6 m^2) was reduced. The risk of early discontinuation due to intolerability was reduced and the duration of theray was increased.

[4] = human, in vivo, intravenous, in a patient
[5] = patients, dose per body surface area

For COc1cc2cc(c1Cl)N(C)C(=O)C[C@H](OC(=O)[C@H](C)N(C)C(=O)CCSSC[C@H](NC(=O)[C@@H]1CSSC[C@H](NC(=O)[C@H](N)Cc3ccccc3)C(=O)N[C@@H](Cc3ccc(O)cc3)C(=O)N[C@H](Cc3c[nH]c4ccccc34)C(=O)N[C@@H](CCCCN)C(=O)N[C@@H]([C@@H](C)O)C(=O)N1)C(N)=O)[C@]1(C)O[C@H]1[C@H](C)[C@@H]1C[C@@](O)(NC(=O)O1)[C@H](OC)/C=C/C=C(\C)C2 [Conjugate 57], the “stability in buffered solution” value [1] was “most stability”, the clearance [2, 4] was 318 mL/min and the half-life [2, 4] was roughly 1.8 h. The “exposure (dose normalized AUC0-8 and Cmax) vs body surface area” value ([2]; patients, FIG. 1A and FIG. 1B) was “correlateds with body surface area (BSA)”, the MTD ([3]; IV, every 3 week cycle, flat dose, previous clinical studies) was 18 mg and the “effect on efficacy of changing from flat doses to doses based on body surface area” value ([3]; patients) was “no negative effect on efficacy”. The “dose levels at which maximum benefit was observed” value [3, 5] was no more than 8.8 mg/m^2 and the “dose levels at which the majority of toxicity was observed” value [3, 5] was “greater than 8.8 mg/m^2”.
